{
  "source": "the Immune Epitope Database (IEDB)",
  "key": {"HLA-A*01:01": {"target": "HLA-A*01:01", "experiment": "IEDB peptide-MHC binding, purified MHC/direct/fluorescence; filed as Kd, often an IC50 or EC50 that approximates it; ≥ and ≤ were set here for values at or beyond the usual limits of such assays"}, "HLA-A*02:01": {"target": "HLA-A*02:01", "experiment": "IEDB peptide-MHC binding, purified MHC/direct/fluorescence; filed as Kd, often an IC50 or EC50 that approximates it; ≥ and ≤ were set here for values at or beyond the usual limits of such assays"}, "HLA-A*03:01": {"target": "HLA-A*03:01", "experiment": "IEDB peptide-MHC binding, purified MHC/direct/fluorescence; filed as Kd, often an IC50 or EC50 that approximates it; ≥ and ≤ were set here for values at or beyond the usual limits of such assays"}, "HLA-A*11:01": {"target": "HLA-A*11:01", "experiment": "IEDB peptide-MHC binding, purified MHC/direct/fluorescence; filed as Kd, often an IC50 or EC50 that approximates it; ≥ and ≤ were set here for values at or beyond the usual limits of such assays"}, "HLA-A*24:02": {"target": "HLA-A*24:02", "experiment": "IEDB peptide-MHC binding, purified MHC/direct/fluorescence; filed as Kd, often an IC50 or EC50 that approximates it; ≥ and ≤ were set here for values at or beyond the usual limits of such assays"}, "HLA-A*26:01": {"target": "HLA-A*26:01", "experiment": "IEDB peptide-MHC binding, purified MHC/direct/fluorescence; filed as Kd, often an IC50 or EC50 that approximates it; ≥ and ≤ were set here for values at or beyond the usual limits of such assays"}, "HLA-A*69:01": {"target": "HLA-A*69:01", "experiment": "IEDB peptide-MHC binding, purified MHC/direct/fluorescence; filed as Kd, often an IC50 or EC50 that approximates it; ≥ and ≤ were set here for values at or beyond the usual limits of such assays"}, "HLA-B*07:02": {"target": "HLA-B*07:02", "experiment": "IEDB peptide-MHC binding, purified MHC/direct/fluorescence; filed as Kd, often an IC50 or EC50 that approximates it; ≥ and ≤ were set here for values at or beyond the usual limits of such assays"}, "HLA-B*08:01": {"target": "HLA-B*08:01", "experiment": "IEDB peptide-MHC binding, purified MHC/direct/fluorescence; filed as Kd, often an IC50 or EC50 that approximates it; ≥ and ≤ were set here for values at or beyond the usual limits of such assays"}, "HLA-B*15:01": {"target": "HLA-B*15:01", "experiment": "IEDB peptide-MHC binding, purified MHC/direct/fluorescence; filed as Kd, often an IC50 or EC50 that approximates it; ≥ and ≤ were set here for values at or beyond the usual limits of such assays"}, "HLA-B*18:01": {"target": "HLA-B*18:01", "experiment": "IEDB peptide-MHC binding, purified MHC/direct/fluorescence; filed as Kd, often an IC50 or EC50 that approximates it; ≥ and ≤ were set here for values at or beyond the usual limits of such assays"}, "HLA-B*27:05": {"target": "HLA-B*27:05", "experiment": "IEDB peptide-MHC binding, purified MHC/direct/fluorescence; filed as Kd, often an IC50 or EC50 that approximates it; ≥ and ≤ were set here for values at or beyond the usual limits of such assays"}, "HLA-B*40:01": {"target": "HLA-B*40:01", "experiment": "IEDB peptide-MHC binding, purified MHC/direct/fluorescence; filed as Kd, often an IC50 or EC50 that approximates it; ≥ and ≤ were set here for values at or beyond the usual limits of such assays"}, "HLA-B*44:02": {"target": "HLA-B*44:02", "experiment": "IEDB peptide-MHC binding, purified MHC/direct/fluorescence; filed as Kd, often an IC50 or EC50 that approximates it; ≥ and ≤ were set here for values at or beyond the usual limits of such assays"}, "HLA-B*46:01": {"target": "HLA-B*46:01", "experiment": "IEDB peptide-MHC binding, purified MHC/direct/fluorescence; filed as Kd, often an IC50 or EC50 that approximates it; ≥ and ≤ were set here for values at or beyond the usual limits of such assays"}, "HLA-B*58:01": {"target": "HLA-B*58:01", "experiment": "IEDB peptide-MHC binding, purified MHC/direct/fluorescence; filed as Kd, often an IC50 or EC50 that approximates it; ≥ and ≤ were set here for values at or beyond the usual limits of such assays"}, "HLA-A*31:01": {"target": "HLA-A*31:01", "experiment": "IEDB peptide-MHC binding, purified MHC/direct/fluorescence; filed as Kd, often an IC50 or EC50 that approximates it; ≥ and ≤ were set here for values at or beyond the usual limits of such assays"}, "HLA-B*15:09": {"target": "HLA-B*15:09", "experiment": "IEDB peptide-MHC binding, purified MHC/direct/fluorescence; filed as Kd, often an IC50 or EC50 that approximates it; ≥ and ≤ were set here for values at or beyond the usual limits of such assays", "details": "source organism: Influenza A virus (A/Taiwan/2/2006(H1N1))"}, "HLA-B*08:02": {"target": "HLA-B*08:02", "experiment": "IEDB peptide-MHC binding, purified MHC/direct/fluorescence; filed as Kd, often an IC50 or EC50 that approximates it; ≥ and ≤ were set here for values at or beyond the usual limits of such assays", "details": "source organism: Mycobacterium tuberculosis C"}, "HLA-B*15:17": {"target": "HLA-B*15:17", "experiment": "IEDB peptide-MHC binding, purified MHC/direct/fluorescence; filed as Kd, often an IC50 or EC50 that approximates it; ≥ and ≤ were set here for values at or beyond the usual limits of such assays", "details": "source organism: Mycobacterium tuberculosis"}, "HLA-B*48:01": {"target": "HLA-B*48:01", "experiment": "IEDB peptide-MHC binding, purified MHC/direct/fluorescence; filed as Kd, often an IC50 or EC50 that approximates it; ≥ and ≤ were set here for values at or beyond the usual limits of such assays", "details": "source organism: Mycobacterium tuberculosis"}, "HLA-B*51:01": {"target": "HLA-B*51:01", "experiment": "IEDB peptide-MHC binding, purified MHC/direct/fluorescence; filed as Kd, often an IC50 or EC50 that approximates it; ≥ and ≤ were set here for values at or beyond the usual limits of such assays", "details": "source organism: Mycobacterium tuberculosis"}, "HLA-B*57:01": {"target": "HLA-B*57:01", "experiment": "IEDB peptide-MHC binding, purified MHC/direct/fluorescence; filed as Kd, often an IC50 or EC50 that approximates it; ≥ and ≤ were set here for values at or beyond the usual limits of such assays", "details": "source organism: Mycobacterium tuberculosis"}, "HLA-B*39:01": {"target": "HLA-B*39:01", "experiment": "IEDB peptide-MHC binding, purified MHC/competitive/fluorescence; filed as Kd, often an IC50 or EC50 that approximates it; ≥ and ≤ were set here for values at or beyond the usual limits of such assays", "details": "source organism: Parafrankia sp. EAN1pec"}, "[1]": {"details": "source organism: Influenza A virus (A/Viet Nam/HN/2004(H5N1))"}, "[2]": {"details": "source organism: Influenza A virus (A/Hong Kong/507/97(H5N1))"}, "[3]": {"details": "source organism: Mycobacterium tuberculosis"}},
  "note": "pKd: −log10 of the molar value.",
  "data": [
    {"sequence": "FRNQVKIRR", "values": [
      {"measurement": "pKd", "setting": "HLA-A*01:01; [1]", "result": "≤ 4.70"},
      {"measurement": "pKd", "setting": "HLA-A*02:01; [1]", "result": "≤ 4.70"},
      {"measurement": "pKd", "setting": "HLA-A*03:01; [1]", "result": "≤ 4.70"},
      {"measurement": "pKd", "setting": "HLA-A*11:01; [1]", "result": "≤ 4.70"},
      {"measurement": "pKd", "setting": "HLA-A*24:02; [1]", "result": "≤ 4.70"},
      {"measurement": "pKd", "setting": "HLA-A*26:01; source organism: Influenza A virus(A/swine/Shandong/fNY/2003(H9N2))", "result": "≤ 4.70"},
      {"measurement": "pKd", "setting": "HLA-A*69:01; [1]", "result": "≤ 4.70"},
      {"measurement": "pKd", "setting": "HLA-B*07:02; [1]", "result": "≤ 4.70"},
      {"measurement": "pKd", "setting": "HLA-B*08:01; [1]", "result": "≤ 4.70"},
      {"measurement": "pKd", "setting": "HLA-B*15:01; [1]", "result": "≤ 4.70"},
      {"measurement": "pKd", "setting": "HLA-B*18:01; [1]", "result": "≤ 4.70"},
      {"measurement": "pKd", "setting": "HLA-B*27:05; source organism: Influenza A virus (A/Puerto Rico/8/34/Mount Sinai(H1N1))", "result": 7.10},
      {"measurement": "pKd", "setting": "HLA-B*40:01; [1]", "result": "≤ 4.70"},
      {"measurement": "pKd", "setting": "HLA-B*44:02; [1]", "result": "≤ 4.70"},
      {"measurement": "pKd", "setting": "HLA-B*46:01; [1]", "result": "≤ 4.70"},
      {"measurement": "pKd", "setting": "HLA-B*58:01; [1]", "result": "≤ 4.70"}
    ]},
    {"sequence": "GTSKIKMKW", "values": [
      {"measurement": "pKd", "setting": "HLA-A*01:01; [2]", "result": "≤ 4.70"},
      {"measurement": "pKd", "setting": "HLA-A*02:01; [2]", "result": "≤ 4.70"},
      {"measurement": "pKd", "setting": "HLA-A*03:01; [2]", "result": "≤ 4.70"},
      {"measurement": "pKd", "setting": "HLA-A*11:01; [2]", "result": "≤ 4.70"},
      {"measurement": "pKd", "setting": "HLA-A*24:02; [2]", "result": "≤ 4.70"},
      {"measurement": "pKd", "setting": "HLA-A*26:01; source organism: Influenza A virus (A/Taiwan/2/2006(H1N1))", "result": "≤ 4.70"},
      {"measurement": "pKd", "setting": "HLA-A*31:01; [2]", "result": "≤ 4.70"},
      {"measurement": "pKd", "setting": "HLA-A*69:01; [2]", "result": "≤ 4.70"},
      {"measurement": "pKd", "setting": "HLA-B*07:02; [2]", "result": "≤ 4.70"},
      {"measurement": "pKd", "setting": "HLA-B*08:01; [2]", "result": "≤ 4.70"},
      {"measurement": "pKd", "setting": "HLA-B*15:01; [2]", "result": "≤ 4.70"},
      {"measurement": "pKd", "setting": "HLA-B*15:09", "result": "≤ 4.70"},
      {"measurement": "pKd", "setting": "HLA-B*27:05; [2]", "result": "≤ 4.70"},
      {"measurement": "pKd", "setting": "HLA-B*40:01; [2]", "result": "≤ 4.70"},
      {"measurement": "pKd", "setting": "HLA-B*44:02; [2]", "result": "≤ 4.70"},
      {"measurement": "pKd", "setting": "HLA-B*46:01; [2]", "result": "≤ 4.70"},
      {"measurement": "pKd", "setting": "HLA-B*58:01; [2]", "result": 6.74}
    ]},
    {"sequence": "KPARGGSSI", "values": [
      {"measurement": "pKd", "setting": "HLA-A*01:01; [3]", "result": "≤ 4.70"},
      {"measurement": "pKd", "setting": "HLA-A*02:01; [3]", "result": "≤ 4.70"},
      {"measurement": "pKd", "setting": "HLA-A*03:01; [3]", "result": "≤ 4.70"},
      {"measurement": "pKd", "setting": "HLA-A*11:01; [3]", "result": "≤ 4.70"},
      {"measurement": "pKd", "setting": "HLA-A*26:01; source organism: Mycobacterium tuberculosis C", "result": "≤ 4.70"},
      {"measurement": "pKd", "setting": "HLA-A*31:01; [3]", "result": "≤ 4.70"},
      {"measurement": "pKd", "setting": "HLA-A*69:01; [3]", "result": "≤ 4.70"},
      {"measurement": "pKd", "setting": "HLA-B*08:02", "result": "≤ 4.70"},
      {"measurement": "pKd", "setting": "HLA-B*15:01; [3]", "result": "≤ 4.70"},
      {"measurement": "pKd", "setting": "HLA-B*15:17", "result": "≤ 4.70"},
      {"measurement": "pKd", "setting": "HLA-B*18:01; [3]", "result": "≤ 4.70"},
      {"measurement": "pKd", "setting": "HLA-B*27:05; [3]", "result": "≤ 4.70"},
      {"measurement": "pKd", "setting": "HLA-B*40:01; [3]", "result": "≤ 4.70"},
      {"measurement": "pKd", "setting": "HLA-B*46:01; [3]", "result": "≤ 4.70"},
      {"measurement": "pKd", "setting": "HLA-B*48:01", "result": "≤ 4.70"},
      {"measurement": "pKd", "setting": "HLA-B*51:01", "result": 5.58},
      {"measurement": "pKd", "setting": "HLA-B*57:01", "result": "≤ 4.70"},
      {"measurement": "pKd", "setting": "HLA-B*58:01; [3]", "result": "≤ 4.70"},
      {"measurement": "pKd", "setting": "HLA-B*39:01", "result": 5.56}
    ]}
  ]
}
